Measured values published in article PMC2120307.

Tests used:
[1] = target: recombinant purified neutrophil adhesion inhibitor NIF (rNIF) of the hookworm Ancylostoma caninum (Ancylostoma caninum); experiment: flow cytometry on cells
[2] = target: recombinant purified neutrophil adhesion inhibitor NIF (rNIF) of the hookworm Ancylostoma caninum (Ancylostoma caninum); experiment: ELISA

## recombinant CD11b A-domain (r11bA), wild type (domain or fragment)
[1]
  IC50: 1 nM
[2]
  IC50: 1 nM
